Measured values: US20030064496

B1: purified mouse MEKK2 (protein)
chain: MDDQQALNSIMQDLAVLHKASRPALSLQETRKAKPSSPKKQNDVRVKFEHRGEKRILQVTRPVKLEDLRSKSKIAFGQSMDLHYTNNELVIPLTTQDDLDKAVELLDRSIHMKSLKILLVVNGSTQATNLEPSPSPEDLNNTPLGAERKKRLSVVGPPNRDRSSPPPGYIPDILHQIARNGSFTSINSEGEFIPESMDQMLDPLSLSSPENSGSGSCPSLDSPLDGESYPKSRMPRAQSYPDNHQEFTDYDNPIFEKFGKGGTYPRRYHVSYHHQEYNDGRKTFPRARRTQGTSFRSPVSFSPTDHSLSTSSGSSVFTPEYDDSRIRRRGSDIDNPTLTVTDISPPSRSPRAPTNWRLGKLLGQGAFGRVYLCYDVDTGRELAVKQVQFNPESPETSKEVNALECEIQLLKNLLHERIVQYYGCLRDPQEKTLSIFMELSPGGSIKDQLKAYGALTENVTRKYTRQILEGVHYLHSNMIVHRDIKGANILRDSTGNIKLGDFGASKRLQTICLSGTGMKSVTGTPYWMSPEVISGEGYGRKADIWSVACTVVEMLTEKPPWAEFEAMAAIFKIATQPTNPKLPPHVSDYTRDFLKRIFVEAKLRPSAEELLRHMFVHYH
B2: His-tagged hMEKK2 (polyhistidine-hMEKK2 fusion) (protein)
chain: HHHHHHMDDQQALNSIMQDLAVLHKASRPALSLQETRKAKSSSPKKQNDVRVKFEHRGEKRILQFPRPVKLEDLRSKAKIAFGQSMDLHYTNNELVIPLTTQDDLDKAVELLDRSIHMKSLKILLVINGSTQATNLEPLPSLEDLDNTVFGAERKKRLSIIGPTSRDRSSPPPGYIPDELHQVARNGSFTSINSEGEFIPESMDQMLDPLSLSSPENSGSGSCPSLDSPLDGESYPKSRMPRAQSYPDNHQEFSDYDNPIFEKFGKGGTYPRRYHVSYHHQEYNDGRKTFPRARRTQGTSLRSPVSFSPTDHSLSTSSGSSIFTPEYDDSRIRRRGSDIDNPTLTVMDISPPSRSPRAPTNWRLGKLLGQGAFGRVYLCYDVDTGRELAVKQVQFDPDSPETSKEVNALECEIQLLKNLLHERIVQYYGCLRDPQEKTLSIFMEYMPGGSIKDQLKAYGALTENVTRKYTRQILEGVHYLHSNMIVHRDIKGANILRDSTGNVKLGDFGASKRLQTICLSGTGMKSVTGTPYWMSPEVISGEGYGRKADIWSVACTVVEMLTEKPPWAEFEAMAAIFKIATQPTNPKLPPHVSDYTRDFLKRIFVEAKLRPSADELLRHMFVHYH

Biological target: GST-MKK4 fusion protein (Upstate Biotechnologies, Inc) [GST: P08515]

Row | Protein | phosphorylation of GST-MKK4 in a kinase reaction with [gamma-32P]-ATP (SDS-PAGE, phosphorimager)
1 | B1 | The ability of extracts containing his-tagged hMEKK2 to phosphorylate GST-MKK4 was comparable to the activity of purified mouse MEKK2
2 | B2 | comparable to the activity of purified mouse MEKK2, and significantly above the background levels seen with control extracts
